Results on 41 sequences are retold here after the nanobody polyreactivity screen of Harvey et al. (2022).

This series in a line: yeast display, Sf9 membrane polyspecificity reagent, FACS + sequencing; frameworks hold sequencing errors. The gist of the method:
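After 36–48 hours of galactose induction, yeast (Saccharomyces cerevisiae BJ5465) displaying a synthetic nanobody library were stained at 4 °C for 1 hour with 10% biotinylated, detergent-solubilized Sf9 membrane reagent. Streptavidin microbeads enriched the stained cells before FACS sorting into low and high (top ~1%) gates on anti-HA and streptavidin fluorescence. Each clone's polyreactivity label reflects its gate of origin.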
In the case of “QVQLLGSGGGLVQACGSLRLSCSASGSISHYIFMGWYRQAPAKEREFVAGIGYGGTTNYADSVKGRFTISRDNAKNTVYLQMNSLKPEDTAMYYCAAREATAFYLYYCGQGTQVTVSS”, the “polyreactivity (PSR sort gate)” value is given as “low polyreactivity”.

In the case of “QVQLVESGGGLLQAGGSLRLSCAASGFTFSRYAMGWYRQAPRKEMELVATISRSGGTTYYADSVKGRFTISRDNAKNTVYLLMNSLKPEDTAVYYGNTDKIWGLQYYYWGQGTQVTVSS”, the “polyreactivity (PSR sort gate)” value was “high polyreactivity”.

As to “QVQLVESGGGLVQAGGSLSLTCDASGFILYYYAMGRYRQAPGKERELVAAIDWDGDRTYYADSVKGRFTISRDIAKNTVYLQMNSLKPEDTAVYYCAAEWPVNFDYWGQGTQVTVSS”, the “polyreactivity (PSR sort gate)” value is on record as “low polyreactivity”.

For “QVQPQESGGGLVQAGGSLRLRCAASGTIFAFQTMGSYRQAPGKERELVASITYGSSTNYADSVKGRFTISRDNAKNTVYLQMNSLKPEDTAVFYCAVPQAQYYYDYWGQGTQVTVSS”, the “polyreactivity (PSR sort gate)” value was “high polyreactivity”.

“QVQLVESGGGLVQAGGSLRLSCAASGRIFKSYVMGWYRQAPGKERELVAAISITGGSTYYADSVKGRFTISRDNAKNTVYLQMNSLKPEDTAVYYCAAGRSGQEDDYWGQGTQVTVSS”: the “polyreactivity (PSR sort gate)” value is “high polyreactivity”.

As to “QVQLVESGGGLVQAGGSLRLSCAASGFTFYYYAMGWYRQAPGKERELVAAISSGGRTNYADSVKGRFTISRDNAKNTVYLQMNSLKPEDTAVYYCAAQYRNYFPYRVVRQGVGYWGQGTQVTVSS”, the “polyreactivity (PSR sort gate)” value was “high polyreactivity”.

As for “QVQLGESGGCLVQAGGSLRLICAASGFIFDRYVMGWYRQAPGKESELVAAINRSGGSTYYADSVKGRFTISRDNAKNTVYLQMNSLKRVDTAVYYCADVRPGSFTVEGYYCGQGTQVTVSS”, the “polyreactivity (PSR sort gate)” value is “high polyreactivity”.

As for “QVQLVESGGGLVQAGGSLRLSCAASGRTIYGYAMGWYRQAPGKERELVAAISWTGGRTYYADSVKGRFTISRDNAKNTVYLQMNSLKPEDTAVYYCNARRRGDSGDGYIYGYWGQGTQVNVSS”, the “polyreactivity (PSR sort gate)” value is on record as “high polyreactivity”.

Regarding “QVQLVESGGGLVQAGGSLRLSCAASGSIFDSYAMGWYRQAPGKERELVADITSDGSTHYADSEKGRFRISRDNAKNTVYLQMNSLKPEDTAVYYCAADYFFYLLGVPVVDVYYWGQGTQVTVSS”, the “polyreactivity (PSR sort gate)” value is “low polyreactivity”.

As for “QVQLVESGGGLVQAGGSLRLSCAASGRTFVTYGMGWYRQAPGKERELVATIRSGTTTNYADSVKGRFTISRDNAKNTVYLQMNSLKPEDTAVYYCNARGLRASSRRYYYWGQGTQVTVSS”, the “polyreactivity (PSR sort gate)” value is listed as “high polyreactivity”.

As for “QVQLVESGGGLVQAGGSLRLSCAASGIIIWTNVMGWYRQAPGKEREFVAAISRSGGSTYYADSVKGRFTISRDNAKNTVYLQMNSLKPEDTAVYYCAARLSYSVQKFDYWGQGTQVTVSS”, the “polyreactivity (PSR sort gate)” value is reported as “high polyreactivity”.

Turning to “QVQLVESGGGLVQAGGSLRLSCAASGSIFGYYTMGWYRQAPGKERELVAAISKNGGSTYYADSVKGRFTISRDNAKNTVYLQMNSLKPEDTAVYYCAAEYTRKGVSGSGYDYWGQGTQVTVSS”, the “polyreactivity (PSR sort gate)” value is reported as “low polyreactivity”.

“QVQLVESGGGLVQAGGSLRLSCAASGFTFGVYTMGWYRQAPGKERELVAAITSGGSTHYADSVKGRFTISRDNAKNTVYLQMNSLKPEDTAVYYCAARVRPRPQRIYGYWGQGTQVTVSS”: the “polyreactivity (PSR sort gate)” value is on record as “high polyreactivity”.

Turning to “QVQLVESGGGLVQAGGSLRLSCAASGIIFRGYVMGWYRQAPGKERELVADISRGGSTYYADSVKGRFTISRDNAKNTVYLQMNSLKPEDTAVYYCATAGPLWFYWGYDYWGQGTQVTVSS”, the “polyreactivity (PSR sort gate)” value is “low polyreactivity”.

For “QDQLVESGGGLVQAGGSLRVSCAASGSVFLVNAMGWYRQAPGKERELVAIDGSGGSTYADSVKGRFTISRDNAKNTVYLQMNILKPEDTAVYYCAKDQEGPLYDYWGQGTQVTVSS”, the “polyreactivity (PSR sort gate)” value is listed as “low polyreactivity”.

With “QVQLVESGGGLVQAGGSLRLSCGASGSTFWWNAMGWYRQAPGKEREFVAAITARGTSTYYADSVKGRFTISRDNAKNTVYLQMNRLKPEDTAVYYCNTRLYGRYYSWYDYWGQGTQVTVSS”, the “polyreactivity (PSR sort gate)” value was “high polyreactivity”.

For the sequence “QVQLVESGGGLVQAGGSLRLSCAASGGIFFYNAMGWYRQAPGKERELVAAISTGGGRTYYADSVKGRFTISRDNAKNTVYLQMNSLKPEDTAVYYCAKDKQDYEYWGQGTQVTVSS”, the “polyreactivity (PSR sort gate)” value is recorded as “low polyreactivity”.

As for “QVQLVESGGGLVQAGGSLRLSCAASGSIFQGNAMGWYRQAPGKERELVAAISWSGDSTYYADSVKGRFTISRDNAKNTVYLQMNSLKPEDTAVYYCNAEWTRDFYEYDYWGQGTQVTVSS”, the “polyreactivity (PSR sort gate)” value is recorded as “low polyreactivity”.

Turning to “QVQLVESVGGLVQAGGSLRLSCAASGSIFSWYAMGWYRQAPGNARELVAAIRRGGSTYYADSVKGRFTISRDNATNTVYLQMNSLKPEDTAVYYCADRVYTAASRGRGDYWGQGTQVTVSS”, the “polyreactivity (PSR sort gate)” value is on record as “low polyreactivity”.

As to “QVQLVESGGGLVQAGGSLRLSCAASGRIFRLYAMGWYRQAPGKERELVAAIRVSGNTYYADSVKGRFTISRDNAKNTVYLQMNSLKPEDTAVYYCAAKPYYFYGMDYWGQGTQVTVSS”, the “polyreactivity (PSR sort gate)” value is “high polyreactivity”.

As for “QVQLVESVGGLVQAGGSLRLSCAASGSIFNYYAMGWYRQAPGKERELVAAITTSGGNTYYADSVKGRFTISRDNPKNTVYLQMNSLKPEDTAVYYCAADYWASGGEYDYWGQGTQVTVSS”, the “polyreactivity (PSR sort gate)” value is given as “low polyreactivity”.

For “QVQLVESGGGLVQAGGSLRLSCAASGRTFGVYAMGWYRQAPGKERELVAASRWSGGGTYYADSVKGRFTISRDNAKNTVYLQMNSLKPEDTAVYYGAATFQNSPYSRYTDMYYWGQGTQVTVSS”, the “polyreactivity (PSR sort gate)” value was “low polyreactivity”.

Take “QVQLVESGGGLVQAGGSLRLSCAASGFIFGVYAKGWYRQAPGKERELVAAISGSGVRTYYADSVKGRFTISRDNAKNTLYLQMNSLKPEDTAVYYCAARRGFVRPYNYWGQGTQVTVSS”: the “polyreactivity (PSR sort gate)” value is on record as “high polyreactivity”.

In the case of “QVQLVESGGGLVQAGGRLRLSCAGSGSTSYGYAMGWYRQAPGKERELVAAITSGGRTYYADSVKGRFTISRDNAKNTVYFQMNSLKPEDTAVYYCAAVRALRKVRDYYYWGQGTQVTVSS”, the “polyreactivity (PSR sort gate)” value is on record as “high polyreactivity”.

Turning to “QVQLVESGGGLVQSGGSLRLSCAASGRTFSYYAMGWYRQAPGKERELVAAISSGGSTNYADSVKGRFTISRDNAKNTVYLQMNSLKPEDTEVYYCATSSIWGSGRVRWVTYYYWGQGTQVTVSS”, the “polyreactivity (PSR sort gate)” value is on record as “low polyreactivity”.

Regarding “QVQLVESGGGLVQAGGSLRLSFAASGITFYYYTMGWYRQAPGKERELVAGITRGGRTYYADSVKGRFTISRDNSKNSVYLQMNSLKPEDTAVYYFNADPWWRFDYWGQGTQVTVSS”, the “polyreactivity (PSR sort gate)” value is “low polyreactivity”.

Take “QVQLVESGGGLVQAGGSLRLSCAASGSISKINAMGWYRHAPGKERELVAAINTGDSTYYADSVKGRFTISRDNAKNTVYLQMNSLKPEDTAVYYCAAEGAPTGYDYWGQGTQVTVSS”: the “polyreactivity (PSR sort gate)” value is reported as “low polyreactivity”.

For the sequence “QVQLVESGVGLVQAGGSLRLSCAASGSTFWAYAMGWYRQAPGKERELVAAITTGGGRTFYADSVKGRFTISRDNAKNTVYLQMNSLKPEETAVYYFAAVSQSYRMYYWGQGTQVTVSS”, the “polyreactivity (PSR sort gate)” value is “low polyreactivity”.

Turning to “QVQLVESGGGLVQAGGSLRLSCAASVSIFWLYAMGWYRQAPGKERELVAAITYSGGRTYADSVKGRFTISRDNAKNTVYVQMISLKPEDTEVIYCATVFRYRKSWGYDYWGQGTQVTVSS”, the “polyreactivity (PSR sort gate)” value is “low polyreactivity”.

On to “PVLLVECGGALVQAGGSLRLTSAASGRIIKLYAMGWYRQAPGKVREFVAALTRSGARTYYADSVKGRFTISRDNAKNTVYFQMYSMKPEDSAVYSCAAYDTYDWYDYWGQGTQVTVSS”, for which the “polyreactivity (PSR sort gate)” value is on record as “high polyreactivity”.

Turning to “QVQLVESGGGLVQAGGSLRIICAASGRIFTFYAMGWYRQATGKARELVASIRSSTYYADSVKGRFTISRDNAKYTVYLQMNSLKPEDTALYYCNVRLSYSYISPSDWNFDYWGQGTQVTVSS”, the “polyreactivity (PSR sort gate)” value was “low polyreactivity”.

In the case of “QVQLVESGVGLVQAGGSLRLRCAASARIFGWYTMGWNRQSPGKERELVADINFGGSTYYADSVKGRFTISRDNAKNTVYLLMKSLKSEYTAVFYCNADYSVYIIADEYDYWGQGTQVTVSS”, the “polyreactivity (PSR sort gate)” value was “low polyreactivity”.

Take “QVQLVESGGGLVQAGGSLRLSCAASGITFVRYAMAWYRQAPGKEREFVAAINSIVGRTYYADSVKGRFTISRDNAKNTVYLQMNSLKPEDTAVYYCAADSNVRFGMDYWGQGTQVTVSS”: the “polyreactivity (PSR sort gate)” value is recorded as “low polyreactivity”.

For the sequence “QVQLVESGGGLVQAGGSLRLSCAASGRIFYRNAMGWYRQAPGKERELVAAISGSGGSTYYADSVKGRFTISRDNAKNTVYLQMNSLKPEDTAVYYCNVDRSPTHIVGYGYWGQGTQVTVSS”, the “polyreactivity (PSR sort gate)” value is given as “low polyreactivity”.

Consider “QVQLVESGGGLVQAGGSLRLSCAASGRIFWHYAMGWYRQAPGKERELVAAISSRGGSTYYADSVKGRFTISRDNAKNTVYLQMNSLKPEDTAVYYCAADRVDGGSYYHSGYWGQGTQVTVSS”, for which the “polyreactivity (PSR sort gate)” value is recorded as “high polyreactivity”.

As to “QVQLEESGGCLVQAGGSLRLSCAASGYIFTPYAKGWYRPAPGKEREFVAAITRSGGSTYYADSVKGRFTISRDYAKNTVYLQMNSLKPEDTAVYYCARYANYDKRYDYWGQGTQVTVSS”, the “polyreactivity (PSR sort gate)” value is recorded as “high polyreactivity”.

For “QVQLVESGGGLVQAGCSLRLSCAASGRIFTGNAMGWYRQAPGKERELVAAISRSGGRTYYADSVKGRFTISRDNAKNTVYLQMNSLKPEDTAVYYCAAAGYYHTYWGTMDYWGQGTQVTVSS”, the “polyreactivity (PSR sort gate)” value was “high polyreactivity”.

As for “QVQLVESGGGLVQAGGSLRLSCAASGSIIGRYTMGWYRQAPGKERELVAAISRSGGSTYYADSVKGRFTISRDNSHNTVYLQMNSPKPEDTAVYYCAKRTYTPRVERLYSSYDYWGQGTQVTVSS”, the “polyreactivity (PSR sort gate)” value is recorded as “high polyreactivity”.

Take “QVHLVESGGGLVQAGGSLRLSCAASGLIFRKYAMGWYRQAPGKERELVAAISSGGDTNYADSVKGRFTISRDNAKNTVYLQMNSLKPEDTAVYYCNADRKYWYGIALEYWGQGTQVTVSS”: the “polyreactivity (PSR sort gate)” value was “high polyreactivity”.

For the sequence “QVQLVESGGGLVQAGGSLRLSCAASGSTFPANAMGWYRQAPGKERELVATISWSGGRTYYADSVKGRFTISRDNAKNTVYIQMNSLKPEDTAVYYCAAYPLYRRRWTGDYWGQGTQVTVSS”, the “polyreactivity (PSR sort gate)” value is given as “high polyreactivity”.

Turning to “QVQLVESGGGLVQAGGSLRLSCAASGITLYRYVMGWYRQAPGKERELVADISGRGTSTYYADSVKGRFTISRDNAKNTVYLQMNSLKPEDTAVYYCNAEYTKTGALVIPYTYYYAEDYWGQGTQVTVSS”, the “polyreactivity (PSR sort gate)” value was “low polyreactivity”.
